Experimental data reported in article PMC7350312.

Target: HIV-1 CRF07_BC gp120 recombinant protein (HIV-1 CRF07_BC)
Assay: SPR; format not shown (protocol in the supplement)

“recombinant human galectin-3 (from UniProt P17931 1-250)” was tested, and the Kd was 7 nM.
